The target in assay [1] is T1, human PVRIG-his (AcroBiosystems, Cat NO. PVG-H52H4) (human, UniProt Q6DKI7 41-171, limits assumed).
T1 construct: also called human PVRIG protein
T1 sequence (looked up): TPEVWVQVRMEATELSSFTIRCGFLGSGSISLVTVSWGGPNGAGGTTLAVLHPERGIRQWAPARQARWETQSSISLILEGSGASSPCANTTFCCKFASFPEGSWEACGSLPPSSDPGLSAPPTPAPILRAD
The assay can be described thus: competition ELISA, PVRIG-His coated, competitor human PVRL2-mFc. The procedure:
The ELISA plate was pre-coated with 100 μL/well of 0.5 μg/mL human PVRIG-his protein (AcroBiosystems, Cat NO. PVG-H52H4). The tested anti-PVRIG antibodies were diluted from the highest concentration of 16 nM (two-fold concentration). The diluted antibodies were mixed with 18 ng/ml human PVRL2-mFc (AcroBiosystems, Cat NO. CD2-H5257) in equal volume, added into the plate (100 μL/well), and incubated with shaking at room temperature for 2.0 hours. […] A HRP substrate, TMB (Thermo, Cat NO. 34029) was added into wells after washing the plate again for color development. After adding a termination solution to terminate the reaction, the absorbance value was read by a microplate reader (MD i3×). An inhibiting curve was drawn with concentration of antibodies as the abscissa and the corresponding OD value as the ordinate. The IC50 value was calculated by using a Four Parameter Logistic Fit (GraphPadPrism9). The smaller the IC50 value, the stronger the ability of the antibodies inhibits the binding between PVRIG and PVRL2. The positive and negative controls are the same as in Example 8.

The target in assay [2] is T1, human PVRIG-his (AcroBiosystems, Cat …). The assay can be described thus: SPR (BIAcore), antibody captured on Protein A chip, human PVRIG-His analyte. The procedure:
Biacore was used to detect the specific binding between anti-PVRIG antibody and human PVRIG protein. Protein A chip was used in the BIAcore assay. The time required for the chip to capture the diluted antibody and saturate the binding antigen to reach Rₘₐₓ (Maximum binding capacity, 50 RU) was measured by manual run. […] The affinity of antibody for antigen was measured by multi-cycle kinetics. In each cycle, the antibodies were injected prior to the injection of gradient concentraions of PVRIG proteins allowing the occurrence of antibody-antigen association and dissociation After each cycle, the Protein A chip was regenerated by Glycine, pH 1.5 (to remove the proteins on the chip). The affinity of antibody for antigen was calculated by BIAcore T200 analysis software.

For assay [3], the target named is T2, human PVRIG-mFc protein (Acro, PVG-H5253) (human, UniProt Q6DKI7 41-171, limits assumed).
T2 construct: bought protein
T2 sequence (looked up): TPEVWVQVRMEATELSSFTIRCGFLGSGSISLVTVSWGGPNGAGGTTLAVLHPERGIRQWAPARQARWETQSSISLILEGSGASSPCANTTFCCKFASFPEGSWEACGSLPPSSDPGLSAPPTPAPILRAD
The assay can be described thus: FACS competition, PVRIG-mFc binding to CHO-K1-CD112 cells, competitor CD112 on cells. The procedure: A working solution of human PVRIG-mFc protein (Acro, PVG-H5253) prepared with staining buffer, 1 μg/mL (four-fold concentration), was added into a 96-well plate (50 μL PVRIG-mFc working solution per well). […] The diluted antibodies were added to the well containing 50 μL of PVRIG-mFc. The plate was placed on a microplate shaker at 400 rpm for 1 minute to fully mix the antibodies and PVRIG-mFc proteins, and then incubated at 4° C. for 30 minutes. After the incubation, the cell suspension prepared above (100 μL) was added into the wells, gently mixed with the pipette tip and incubated at 4° C. for 30 minutes. After the incubation, the cells were washed twice with staining buffer (200 μL per well) and centrifuged at 350×g for 5 minutes to discard the supernatant. The PE goat anti-mouse IgG Fc antibody (Biolegend, 405337) was diluted 250 times with staining buffer, added into the washed wells (100 μL per well), mixed well, and stained at 4° C. for 30 minutes. After staining, the cells were washed twice with staining buffer, finally resuspended with 200 μL staining buffer and analyzed by flow cytometry (BD, Canto II). The weaker the fluorescence signal, the stronger the ability of the antibodies blocks the binding of CHO-K1 human CD112 cells to the PVRIG-mFc protein. An antibody binding curve was drawn with concentration of antibodies as the abscissa and the corresponding Mean Fluorescence Intensity (MFI) as the ordinate. The IC50 value of the antibodies and the AUC value of the binding curve were calculated by using a Four Parameter Logistic Fit (GraphPadPrism9). The smaller the IC50 value and AUC value, the stronger the ability of the antibodies competes with CHO-K1-CD112 cells to bind to human PVRIG-mFc protein. […] […] The smaller the percentage value, the stronger the blocking ability of the antibodies.

Results on nine molecules are retold here after US20240343803A1 (SHANDONG SIMCERE BIOPHARMACEUTICAL, published 2024).

B1: PVRIG-A30 (Fc fusion)
chain: QVQLVESGGGLVQPGGSLRLSCAASGRTDSMNVMGWFRRAPGKEREFVARIKWNGDTTYTAYADFLKGRFTLYGAVARNRVYLQMNSLQPEDTAVYYCAAGEVSGSSYSPDYGMHYWGKGTLVTVSS
notes: heavy chain antibody VHH-hinge-CH2-CH3, human IgG1 constant part; not shown: human IgG1 hinge-CH2-CH3
B1 gave an IC50 in assay [1] of 0.255 nM. Moreover, in assay [2], binding was put at a Kd of 0.404 nM, the koff was determined as 6.36e-05 s⁻¹ and the kon is 157000 M⁻¹ s⁻¹. For the same molecule, in assay [3], the “% AUC to COM701-hIgG4” value worked out at 58.9%, the “% AUC to SRF813-hIgG1” value amounted to 58.9%, the “% IC50 to COM701-hIgG4” value was found to be 48.1% and the “% IC50 to SRF813-hIgG1” value amounted to 64.4%.

B2: PVRIG-A104 (Fc fusion)
chain: EVQVVESGGGLVQAGGSLRLSCAASGRTRSMYVMGWFRQAPGKEREFVGRIKWSGDTTYTSYADFVKGRFTLYGNQARNTVYLQMNSLKPEDTAVYYCYRRSWTNTKLYWGKGIQVTVSS
notes: as for B1
Turning to B2, in assay [1], the IC50 was 0.0659 nM. In assay [2], the Kd was determined as 0.0276 nM, the koff worked out at 4.24e-06 s⁻¹ and the kon was determined as 154000 M⁻¹ s⁻¹. In assay [3], the “% AUC to COM701-hIgG4” value was 152%, the “% AUC to SRF813-hIgG1” value was found to be 111%, the “% IC50 to COM701-hIgG4” value was determined as 118% and the “% IC50 to SRF813-hIgG1” value is 116%.

B3: PVRIG-A43 (Fc fusion)
chain: QVQLVESGGGLVQSGGSLRLSCAASGRTRSMYVMGWFRQAPGKEREFVGRIKWSGDTTYTSYADFVKGRFTLYGNQARNTVYLQMNSLKVEDTAVYYCAGRVVPLPSRQRDRYDYWGQGTQVTVSS
notes: as for B1
In the case of B3, in assay [1], the IC50 was determined as 0.0537 nM. Further, in assay [2], binding was put at a Kd of 0.366 nM, the koff was 8.58e-06 s⁻¹ and the kon stood at 23400 M⁻¹ s⁻¹. In assay [3], the “% AUC to COM701-hIgG4” value is 128%, the “% AUC to SRF813-hIgG1” value was 111%, the “% IC50 to COM701-hIgG4” value was 121% and the “% IC50 to SRF813-hIgG1” value worked out at 119%.

B4: PVRIG-A60 (Fc fusion)
chain: QVQLVESGGGLVQSGGSLRLSCAASGRTRSMYVMGWFRQAPGKEREFVGRIKWSGDTTYTSYADFVKGRFTLYGNQARNTVYLQMNSLKPEDAAVYYCNLRRLDGVNYWGKGTLVTVSS
notes: as for B1
With B4, the IC50 in assay [1] was 0.0557 nM. In addition, in assay [2], binding was characterised by a dissociation constant (Kd) of 0.283 nM, the koff was determined as 3.97e-05 s⁻¹ and the kon worked out at 141000 M⁻¹ s⁻¹. Moreover, in assay [3], the “% AUC to COM701-hIgG4” value worked out at 117%, the “% AUC to SRF813-hIgG1” value was 103%, the “% IC50 to COM701-hIgG4” value is 98.9% and the “% IC50 to SRF813-hIgG1” value is 96.4%.

B5: PVRIG-A117 (Fc fusion)
chain: EVQVVESGGGLVQAGGSLRLSCTASEHIYDLYIMGWYRQAPGKDRELVATITYTGSIYIADSVKDRFTISRGNAKNTVSLQMSGLKPEDTAVYYCNADPSGLGRKLYWGQGTQVTVSS
notes: as for B1
In the case of B5, the IC50 in assay [1] was 0.0528 nM. In assay [2], this molecule displayed a Kd of 0.367 nM, a koff of 0.00137 s⁻¹ and a kon of 3.74e+06 M⁻¹ s⁻¹. Further, in assay [3], the “% AUC to COM701-hIgG4” value was 130%, the “% AUC to SRF813-hIgG1” value was 72.7%, the “% IC50 to COM701-hIgG4” value amounted to 134% and the “% IC50 to SRF813-hIgG1” value turned out to be 118%.

B6: PVRIG-A75 (Fc fusion)
chain: QLQLVESGGGLVQSGGSLRLSCAASGRTRSMYVMGWFRQAPGKEREFVGRIKWSGDTTYTSYADFVKGRFTLYGNQARNTVYLQMNSLKPEDTAVYSCAASKFPVSGVPEHYDYWGQGTQVTVSS
notes: as for B1
As to B6, in assay [1], the IC50 turned out to be 0.0621 nM. In assay [2], this molecule yielded a Kd of 0.531 nM, a koff of 5.67e-05 s⁻¹ and a kon of 107000 M⁻¹ s⁻¹. In addition, in assay [3], the “% AUC to COM701-hIgG4” value was determined as 101%, the “% AUC to SRF813-hIgG1” value was 86.6%, the “% IC50 to COM701-hIgG4” value stood at 89.6% and the “% IC50 to SRF813-hIgG1” value was 93.7%.

B7: PVRIG-A15 (Fc fusion)
chain: QVQLVESGGGLVQAGGSLRLSCVASGRTFSANTMAWFRQAPGKEREFVAYTRWTDDNTDYASYADFVKGRFTAFRDNTRNTMYLQMNRLRPEDTAVYYCAAATTRGTYYSAGDYNSWGQGTQVTVSS
notes: as for B1
Consider B7, for which the IC50 in assay [1] was 0.208 nM. In assay [2], this molecule gave a Kd of 0.377 nM, a koff of 2.31e-05 s⁻¹ and an association rate constant (kon) of 61200 M⁻¹ s⁻¹. In assay [3], the “% AUC to COM701-hIgG4” value amounted to 77.2%, the “% AUC to SRF813-hIgG1” value was found to be 77.3%, the “% IC50 to COM701-hIgG4” value was 54.1% and the “% IC50 to SRF813-hIgG1” value was 72.4%.

B8: PVRIG-A113 (Fc fusion)
chain: QLQLVESGGGLVQSGGSLRLSCAASGRTRSMYVMGWFRQAPGKEREFVGRIKWSGDTTYTSYADFVKGRFTLYGNQARNTVYLQMNSLKPEDTAVYYCAALPSDYDYRAASYGVDYWGKGTLVTVSS
notes: as for B1
With B8, the IC50 in assay [1] came out at 0.092 nM. Also, in assay [2], the Kd was 0.203 nM, the koff is 8.96e-05 s⁻¹ and the kon was 442000 M⁻¹ s⁻¹. In assay [3], the “% AUC to COM701-hIgG4” value came to 172%, the “% AUC to SRF813-hIgG1” value came to 106%, the “% IC50 to COM701-hIgG4” value stood at 124% and the “% IC50 to SRF813-hIgG1” value worked out at 97.9%.

B9: PVRIG-A35 (Fc fusion)
chain: EVQVVESGGGLVQSGGSLRLSCAASGRTRSMYVMGWFRQAPGKEREFVGRIKWSGDTTYTSYADFVKGRFTLYGNQARNTVYLQMNSLKPEDTAVYYCNGRSRFNVINAWGTGTLVTVAS
notes: as for B1
As for B9, the IC50 in assay [1] was 0.0543 nM. Also, in assay [2], the Kd is 0.846 nM, the koff was found to be 7.53e-06 s⁻¹ and the kon was 8900 M⁻¹ s⁻¹. In addition, in assay [3], the “% AUC to COM701-hIgG4” value came out at 145%, the “% AUC to SRF813-hIgG1” value stood at 126%, the “% IC50 to COM701-hIgG4” value came to 138% and the “% IC50 to SRF813-hIgG1” value turned out to be 136%.
